Holding throughout (conditions): both partners purified
Test [1] deals with T1, human OX40 extracellular domain (recombinant, C-terminal His tag) (Homo sapiens).
T1 construct: OX40 (TNFRSF4, CD134), human, extracellular domain (four cysteine-rich domains CRD1-4); The deposited entries 8AG1 and 7YK4 hold the construct; also called hOX40; TNFRSF4; source: HEK293F, transient expression, purified (HisTrap, Superdex 200 gel filtration)
T1 chain: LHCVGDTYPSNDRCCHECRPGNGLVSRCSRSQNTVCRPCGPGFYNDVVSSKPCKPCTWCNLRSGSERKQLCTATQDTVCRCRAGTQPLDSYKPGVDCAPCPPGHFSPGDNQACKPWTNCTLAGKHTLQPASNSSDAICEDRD
As to the kind of experiment: ELISA; human OX40 variants coated on a 96-well plate; serially diluted antibody added for 2 h at 37 °C; detected with goat (Fab')2 anti-human IgG Fc (HRP).

Test [2] has as its target T1, human OX40 extracellular domain …. As to the kind of experiment: BLI; DF004 (10 μg/mL) loaded on protein A sensors; OX40 variants as two-fold serial dilutions in PBS with 1% BSA; association 120 s, dissociation up to 320 s; Octet K2.
In test [3] the target is T2, OX40-G70A (human, UniProt P43489, G70A).
T2 construct: OX40 (TNFRSF4), human, extracellular domain with G70A; Tag and host are told for recombinant OX40 in general, not for the variants by name; also called G70A variant of human OX40; source: HEK293F, transient expression, purified (told for recombinant human OX40 in general)
The description is as above.

B1: DF004 (full antibody, IgG1) (antibody, V domains shown)
VH: QVQLQQSGPGLVKPSQTLSLTCAISGDSVSSNSVSWDWIRQSPSRGLEWLGRTYYRSKWYNEYAVSVESRITINPDTSKNQFSLQLNSVTPEDTAIYFCVRNDYFFDLWGRGTLVTVSS
VL: EIVLTQSPATLSLSPGERATLSCRASQSVGSYLAWYQQKPGQAPRLLIYDASNRATGIPARFSGSGSGTDFTLTISSLEPEDFAVYYCQQRSNWPPGYTFGQGTKLEIK
notes: VH of DF004, as in the heavy chain (VH-CH1) of m3; IgG1 constant region; as the light chain (VL-CL) of m3; IgG1; scFv clone from a yeast display library made from PBMCs of healthy human donors, variable fragments grafted onto IgG1 Fc; source: HEK293F, transient expression, purified from the expression medium (protein A column)
With B1, the EC50 in test [1] was about 0.09 nM. Besides, the Kd in test [2] is 4.39 nM. Moreover, in test [3], the “fold decrease of binding affinity against wild-type OX40 (kd value)” value was about 32 fold.

(Values after publication PMC9496217, “Structural Basis of a Novel Agonistic Anti-OX40 Antibody” (Biomolecules, 2022).)
